# Experimental data taken from patent publication US12060433B2, “CD73 inhibitor and A2A/A2B adenosine receptor inhibitor combination therapy” (Incyte Corporation, priority 2020, dated 2024).
# T1: human CD73 (SEQ ID NO: 70) (Homo sapiens, UniProt P21589)
# T1 construct: purchased BPS Bioscience
# T1 sequence (P21589 27-549): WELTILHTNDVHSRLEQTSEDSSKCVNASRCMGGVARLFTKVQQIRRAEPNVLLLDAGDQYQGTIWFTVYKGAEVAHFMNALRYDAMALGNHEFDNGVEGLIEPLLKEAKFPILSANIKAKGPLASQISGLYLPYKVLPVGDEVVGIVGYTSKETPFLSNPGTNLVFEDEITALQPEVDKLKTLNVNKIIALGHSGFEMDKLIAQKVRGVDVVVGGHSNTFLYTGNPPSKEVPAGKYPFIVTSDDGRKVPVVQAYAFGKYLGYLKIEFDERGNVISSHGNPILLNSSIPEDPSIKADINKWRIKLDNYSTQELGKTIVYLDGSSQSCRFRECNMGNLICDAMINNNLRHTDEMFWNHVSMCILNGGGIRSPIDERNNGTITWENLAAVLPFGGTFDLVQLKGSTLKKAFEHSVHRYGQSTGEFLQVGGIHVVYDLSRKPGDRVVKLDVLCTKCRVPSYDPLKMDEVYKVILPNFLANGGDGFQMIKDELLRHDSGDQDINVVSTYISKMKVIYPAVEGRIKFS
# Target: T1, human CD73 (SEQ ID NO: 70)
# Test: SPR (Biacore 8K) binding affinity and kinetics to human CD73
# Conditions: human CD73, open conformation, 25° C.
# Protocol: The SPR running buffer (10 mM HEPES, 150 mM NaCl, 3 mM EDTA and 0.05% v/v Surfactant P20, pH 7.4) was prepared from 10×HBS-EP Buffer (GE Healthcare). Anti-human Fc antibodies (GE Healthcare) were immobilized via amine coupling on all sixteen flow cells of an S series sensor chip CM5 (GE Healthcare). The immobilization levels were ˜9000 RU for all flow cells. The desired capturing level of anti-CD73 antibody was achieved by flowing appropriate concentration of anti-CD73 antibody through the active flow cell of each channel. The non-cleavable ADP analogue APCP (adenosine-5′-(α,β-methylene) diphosphate) with the presence of Zn^2+ can be used to shift the CD73 conformational equilibrium from open towards closed. Therefore, recombinant CD73 was incubated with SPR running buffer in the presence of 100 μM APCP and 10 μM ZnCl2 (closed SPR running buffer) to study the binding of anti-CD73 antibody to the CD73 in the closed conformation. To achieve this, the ABA injection feature in Biacore 8K was used. For open conformation, the ABA injection sequence started with 60 seconds injection of running buffer. Then, CD73 3-fold serial dilution concentration series prepared from CD73 stock (BPS Bioscience) and running buffer were injected for 180 seconds immediately followed by running buffer for 240 seconds. For closed conformation, the normal SPR running buffer was replaced by closed SPR running buffer. Surface was regenerated with 30 seconds injection of 3 M MgCl2. […] Binding affinities and kinetic association and dissociation rate constants to human, cynomolgus, and mouse CD73 in either open or closed conformations are shown in Table 8 below. The results in Table 8 ensure cynomolgus pharmacokinetic data will reflect human pharmacokinetic data.
# Binding affinities and kinetic association and dissociation rate constants to human, cynomolgus, and mouse CD73 in either open or closed conformations are shown in Table 9 below.
ka [M⁻¹ s⁻¹],kd [s⁻¹],Molecule
770000,0.00176,"CL25_hu_8-4: humanized CL25 antibody, VH and VL in FIG. 1B (antibody, V domains shown) VH: QVQLVQSGAEVKKPGASVKVSCKASGYTFTSYGLSWVRQATGQGLEWMGEIYPGSGNTYYNEKFKGRVTMTRNTSISTAYMELSSLRSEDTAVYYCARYDYLGSSYGFDYWGAGTTVTVSS VL: DIQMTQSPSSLSASVGDRVTITCKASQDVSTAVAWYQQKPGKAPKLLLYSASYRYSGVPSRFSGSGSGTDYTLTISSLQPEDFATYYCQQHYNTPYTFGGGTKLEIK"
524000,0.00092,"CL25_hu_10-6: humanized CL25 antibody, VH and VL in FIG. 1A (antibody, V domains shown) VH: EVQLVQSGAEVKKPGESLKISCKGSGYTFTSYGLSWVRQMPGKGLEWMGEIYPGSGNTYYNEKFKGQVTISADKSISTAYLQWSSLKASDTAMYYCARYDYLGSSYGFDYWGAGTTVTVSS VL: AIRMTQSPSSFSASTGDRVTITCKASQDVSTAVAWYQQKPGKAPKLLIYSASYRYSGVPSRFSGSGSGTDFTLTISCLQSEDFATYYCQQHYNTPYTFGGGTKLEIK"
799000,0.00117,"CL25_hu_11-5: humanized CL25 antibody, VH and VL in FIG. 1B (antibody, V domains shown) VH: QVQLVQSGAEVKKPGASVKVSCKASGYTFTSYGLSWVRQATGQGLEWMGEIYPGSGNTYYNEKFKGRVTMTANTSISTAYMELSSLRSEDTAVYYCARYDYLGSSYGFDYWGAGTTVTVSS VL: DIVMTQSPDSLAVSLGERATINCKASQDVSTAVAWYQQKPGQPPKLLIYSASYRYSGVPDRFSGSGSGTDFTLTISSLQAEDVAVYYCQQHYNTPYTFGGGTKLEIK"
565000,0.00114,"CL25_hu_9-5: humanized CL25 antibody, VH and VL in FIG. 1C (antibody, V domains shown) VH: QVQLVQSGAEVKKPGSSVKVSCKASGYTFTSYGLSWVRQAPGQGLEWMGEIYPGSGNTYYNEKFKGRVTITADESTSTAYMELSSLRSEDTAVYYCARYDYLGSSYGFDYWGAGTTVTVSS VL: DIVMTQSPDSLAVSLGERATINCKASQDVSTAVAWYQQKPGQPPKLLIYSASYRYSGVPDRFSGSGSGTDFTLTISSLQAEDVAVYYCQQHYNTPYTFGGGTKLEIK"
424000,0.000953,"CL25_hu_9-6: humanized CL25 antibody, VH and VL in FIG. 1C (antibody, V domains shown) VH: QVQLVQSGAEVKKPGSSVKVSCKASGYTFTSYGLSWVRQAPGQGLEWMGEIYPGSGNTYYNEKFKGRVTITADESTSTAYMELSSLRSEDTAVYYCARYDYLGSSYGFDYWGAGTTVTVSS VL: AIRMTQSPSSFSASTGDRVTITCKASQDVSTAVAWYQQKPGKAPKLLIYSASYRYSGVPSRFSGSGSGTDFTLTISCLQSEDFATYYCQQHYNTPYTFGGGTKLEIK"
624000,0.00155,"CL25_hu_11-4: humanized CL25 antibody, VH and VL in FIG. 1A (antibody, V domains shown) VH: QVQLVQSGAEVKKPGASVKVSCKASGYTFTSYGLSWVRQATGQGLEWMGEIYPGSGNTYYNEKFKGRVTMTANTSISTAYMELSSLRSEDTAVYYCARYDYLGSSYGFDYWGAGTTVTVSS VL: DIQMTQSPSSLSASVGDRVTITCKASQDVSTAVAWYQQKPGKAPKLLLYSASYRYSGVPSRFSGSGSGTDYTLTISSLQPEDFATYYCQQHYNTPYTFGGGTKLEIK"
382000,0.00264,"CL25_hu_9-4: humanized CL25 antibody, VH and VL in FIG. 1C (antibody, V domains shown) VH: QVQLVQSGAEVKKPGSSVKVSCKASGYTFTSYGLSWVRQAPGQGLEWMGEIYPGSGNTYYNEKFKGRVTITADESTSTAYMELSSLRSEDTAVYYCARYDYLGSSYGFDYWGAGTTVTVSS VL: DIQMTQSPSSLSASVGDRVTITCKASQDVSTAVAWYQQKPGKAPKLLLYSASYRYSGVPSRFSGSGSGTDYTLTISSLQPEDFATYYCQQHYNTPYTFGGGTKLEIK"
715000,0.00111,"CL25_hu_8-6: humanized CL25 antibody, VH and VL in FIG. 1C (antibody, V domains shown) VH: QVQLVQSGAEVKKPGASVKVSCKASGYTFTSYGLSWVRQATGQGLEWMGEIYPGSGNTYYNEKFKGRVTMTRNTSISTAYMELSSLRSEDTAVYYCARYDYLGSSYGFDYWGAGTTVTVSS VL: AIRMTQSPSSFSASTGDRVTITCKASQDVSTAVAWYQQKPGKAPKLLIYSASYRYSGVPSRFSGSGSGTDFTLTISCLQSEDFATYYCQQHYNTPYTFGGGTKLEIK"
887000,0.00107,"CL25_hu_10-4: humanized CL25 antibody, VH and VL in FIG. 1A (antibody, V domains shown) VH: EVQLVQSGAEVKKPGESLKISCKGSGYTFTSYGLSWVRQMPGKGLEWMGEIYPGSGNTYYNEKFKGQVTISADKSISTAYLQWSSLKASDTAMYYCARYDYLGSSYGFDYWGAGTTVTVSS VL: DIQMTQSPSSLSASVGDRVTITCKASQDVSTAVAWYQQKPGKAPKLLLYSASYRYSGVPSRFSGSGSGTDYTLTISSLQPEDFATYYCQQHYNTPYTFGGGTKLEIK"
>1e+06,0.000949,"CL25_hu_8-5: humanized CL25 antibody, VH and VL in FIG. 1B (antibody, V domains shown) VH: QVQLVQSGAEVKKPGASVKVSCKASGYTFTSYGLSWVRQATGQGLEWMGEIYPGSGNTYYNEKFKGRVTMTRNTSISTAYMELSSLRSEDTAVYYCARYDYLGSSYGFDYWGAGTTVTVSS VL: DIVMTQSPDSLAVSLGERATINCKASQDVSTAVAWYQQKPGQPPKLLIYSASYRYSGVPDRFSGSGSGTDFTLTISSLQAEDVAVYYCQQHYNTPYTFGGGTKLEIK"
550000,0.00101,"CL25_hu_11-6: humanized CL25 antibody, VH and VL in FIG. 1B (antibody, V domains shown) VH: QVQLVQSGAEVKKPGASVKVSCKASGYTFTSYGLSWVRQATGQGLEWMGEIYPGSGNTYYNEKFKGRVTMTANTSISTAYMELSSLRSEDTAVYYCARYDYLGSSYGFDYWGAGTTVTVSS VL: AIRMTQSPSSFSASTGDRVTITCKASQDVSTAVAWYQQKPGKAPKLLIYSASYRYSGVPSRFSGSGSGTDFTLTISCLQSEDFATYYCQQHYNTPYTFGGGTKLEIK"
